From the DeepSol protein solubility set

Assay: soluble on expression in E. coli; label from the status in PepcDB or PDB records

| Sequence | soluble on expression in E. coli |
| --- | --- |
| MIRWFRNFGALFKKPRGAGLMKNEQTHNLQRVVQNDITCPEEQRSTGGKGGGGGSHGGHGGSHGGSHGGHGSHGGSYGGHSGHGRSFSTSSGSSGYRGLSSGSTNTSYSKSTPRTNSGYSTGKTTKTASSSRNYSNTSSTRSTTKPSKSSYSKRSTKSTKSLNYSSSSLGSKSIEKSRRSSRKSGSRQDSVASRRQLRSVSSKPQKKYVATDMPSTVSTGRSRGRSVYRRNNVNADVSQRQSRSMSVSRGRSRNRSQNRERSPSIEKSTRSQHVSRKDAFNSHDVLSPTNRSGSVHRSHSAHHERTFEERHKTPNGVWNEMFPKGTLVMYTDGSYLKRPPTSGIGIFVGPGHELNRSQRIRGPIQDNNYAEFIAVRTALQNALKNENYRDQKVVIRTDCLNVIEALQGTRPTAFVDVKSQVEFLSKQFPKGVHFQHVYAHAGDPGNEMADLFAGQASSKSQNSFGGGQRTRSASTARGRSRERNRLRSKSNDPSFIRSRSHSIHSRK | not soluble |
| MISASLQQRKTRTRRSMLFVPGANAAMVSNSFIYPADALMFDLEDSVALREKDTARRMVYHALQHPLYRDIETIVRVNALDSEWGVNDLEAVVRGGADVVRLPKTDTAQDVLDIEKEILRIEKACGREPGSTGLLAAIESPLGITRAVEIAHASERLIGIALGAEDYVRNLRTERSPEGTELLFARCSILQAARSAGIQAFDTVYSDANNEAGFLQEAAHIKQLGFDGKSLINPRQIDLLHNLYAPTQKEVDHARRVVEAAEAAAREGLGVVSLNGKMVDGPVIDRARLVLSRAELSGIREE | soluble |
| MISIKVLFFGEACQLVGKREEAIDFPEETDYEEIRKTILENYPALQKIEKVMMLAVDQEYANPGDRFELVRFTEIAVIPPLSGG | soluble |
| MISILRRGLLVLLAALPLLANAASTPSAHDLVQDTTTRLLADLAANKEKYKQSPNDFYNALNSIVGPVVDADGISRSIMTVKYSRKATPEQMVRFQENFKRSLMQFYGNALLEYNNQGITVSPAKDESGTRTSVDMQVKGNNGAIYPVSYTLEKINDEWKVRNVIINGINIGKLFRDQFADAMQRNGNNLDKTIDGWAGEVAKAKEVTEDAAQKAAQLEHHHHHH | soluble |
| MISIVGIGSGNRVEELTIKAYNTLKNSDIGIYPGNFIGEELKELFEDKTMFTGRDITSEKIKNIFHNNRDKNICLMVSGDPALYSGQFNTNLCLDEHIKWFNEHNYNYEMIPGLSSLSILCAKKSIDLTPFSKTQNVFITSIERLRDLKCFNYTELKSILSTKPVLALYQSLKEFDNIKSLLMEFYPPTTKVIFAQSLSWSNECIFETDLKTLNETESTTSQFNDQTLILVYPSTILTIK | not soluble |
| MISNNTRRVYRISFSFFEQYCLEHNLQSLPADPRSIISFIGHQKELLQASTGMQLSKQTLTTRIAAIRFYHIQAGFPTPTEHPQVIRVMRGLSRNHHRLVQDYDQQPLEHHHHHH | not soluble |
| MISPQEQQKQEIATTPSGTKENEKLVVPGVQVALENISTKSVLNAVNYKYAQLFHREQVSSAQSNTTSKQYIEERKTSNGTIGEVLRKFEKGRLLGKGGFAKVYQLTDIHTHQKYAGKIIPKNAIRKESAKQKLISEIRIHRELRHRHIVKFESCFEDQENVYIVLELCPNGSIMDMVRQRGRLTEYETRYFMIQILDAIRYMHRECLVIHRDLKLGNFFLDENMEVKIGDFGLAAQLSSDKERKRTICGTPNYIAPEILSGKQGHSFEVDIWSTGVVFYTMLVGKPPFETSDVKSTYKRIKENIYSIPESLDLSTSAIELIGSILNSDPAKRLSLDEIRSHPFFDAKIPRALSIHALKSTPVFEESELIERNKESSSYKKGRENRQQTVVGSSGLWNDVIQSISQDQRTPLQKLQQHIKSNAAKNNDHAEKLHQALEKHLQLNDNQSKKEEKLLESQEAHSKSTKGIFDKGLDTQSEDEERMVLNKVRDQLTSSFALLKNAEQSPYAFTSSLNTNDGTTSGSPSFQSPVNALTGGAWICKWLDYSKKYGLGYQTCLGSTGVCFNDGTQIILEKGQQNWIYYMKRTESHEERNENKWIKMTMEDYPSELQKKVKLLIHFRNYMLDHTPKGQEDPLISPESSFQNIDTSNETCGAKDATRPVYIKTWFRSPYAIIFRLSNRNIQVDFNDGTEVILSPEVHVVTYRGKDGRRNSYQQGHLPSLPELLKRLRYVMDLLQEMLNRKTS | soluble |
| MISSPHKLTGDIMTKRTKRTRRLFSAEFKLEAAQLVLDQNYSVTEAAQAMNVGKSTMDKWVRQLREERQGKTPKASPMTPEQIEIRELKKKLARLEEHNEILKKATALLMSDSLNNSLEHHHHHH | soluble |
| MITMNMNDYKNKRVPPDWCPGCGNFAQLSAITMALAELKIDPKDVVVASGIGCSSNMPEFLNTYGFHGLHGRLVPFAAGVKWANSKLTVIAYGGDGDGFFEGTQHFYHTAKRNVDITYMVSDNQVFGLTTGQASPTAPIGLKTKTTPDGNIETPFNPIAFALNAGATFVARAFSGDIKHLKDITVRAIKHKGFSFIDVISPCVTWNKENSYEYFRPRVYHLENNDVTNFDQAYKLAFEWGDHIPIGVFYEVERPTYEDLDEVLKEGPLVEQGIHKLTEDDLEEFA | not soluble |
| MITVFHSDKLTRQPFFQDLINYLDQHDHVILREIKKAFPNVTGIDKAIESYVQAGYIRRENKRYGINLPLVSSDQQLALDTMLFVDTCSAMYENILAVVFETQLTNQTNRVMIKEKTNITRDDLTLANYFYRLKRGEKPSAEQMDLYDLLGDVNQEYALKYMTTFLLKFTRKDFVMQKRPDIFVEALVTLGYLKQVEPTTYQLLMTLDKESLTFIAP | not soluble |
| MIVETMTYQEIADEFKKDWERSIRHKITDCFGMANKYRRYILKEGKTDKWIRFKPIEFTSPRGNNCVIQFVSKGWADYKRNGLIFVLYMYYYKSEGLYAVMIAGDNFDEFSFYTPHLFDRYRERKLKDISKPKLQTMFDFFKTNATSRFNRVNNDKYANSIFSVCPNGVTLGSEISDKIIENRTYITFEMLKSDQVQDEEKLGTALKAYLDKQL | not soluble |
| MIVIFVDFDYFFAQVEEVLNPQYKGKPLVVCVYSGRTKTSGAVATANYEARKLGVKAGMPIIKAMQIAPSAIYVPMRKPIYEAFSNRIMNLLNKHADKIEVASIDEAYLDVTNKVEGNFENGIELARKIKQEILEKEKITVTVGVAPNKILAKIIADKSKPNGLGVIRPTEVQDFLNELDIDEIPGIGSVLARRLNELGIQKLRDILSKNYNELEKITGKAKALYLLKLAQNKYSEPVENKSKIPHGRYLTLPYNTRDVKVILPYLKKAINEAYNKVNGIPMRITVIAIMEDLDILSKGKKFKHGISIDNAYKVAEDLLRELLVRDKRRNVRRIGVKLDNIIINKTNLSDFFDI | soluble |
| MIVLRDVAGSDESMYQALQSDLDLTDYLSRFCPYNSSVANYDTSKVCWFIIEEDTNCIGSIWLERDAQEPDTVILGIFISGKNSRGRGIGSYAIREAIRISKQRMPFRYVRLNVRRNNLRAIRCYEKCGFKVCGEGQKNAKNGAIIDYYRMIMKVED | soluble |
| MIYAAEEVRARFARRGLSFDPTVEEIVRGILEAVREEGDEALDRFSRDLDGYPVEEVPKRAWREAYEDLDEDLRDALETARERIEAFYREEARGGFLRAEGGGVLAQLVRPLERVGVYVPGGSAPLLSTLLMTVVPAKVAGVREVIVASPPKVHPGVLAAAWVAGADRLFAMGGAQAIAALAYGTGRVPRVDKIVGPGNRYVVAAKRLVYGTVGIDGLAGPTETMIIADGSASPRLLAADLLAQAEHGPDSEPWLLSPDRALLERVEAELSWQLQDLPRAEVARQALEKGGLVLTKDLEEAFALANLYAPEHLSLALSDPLPWLEKVQNAGGVFLGEGSPEALGDYIAGPSHVMPTSGTARFQGGLAVRDFLKVIPVVGLSEGAARELAKKGALLARAEGLEGHARSLDLRR | soluble |
| MIYAYIRVSTDKQTVENQRFEINRFAKQRDFQIDVWVEETVSGTRSAKDRKLGVLLKRIKKGDTLIVSEISRLGRRLMEVMSILNACMLKNVILLTVKEKYELGNNIQSQILAFAFSLSAQIERDLISQRTREGLARRIASGQKLGRPMGGHNSKYKLTGKEEKIKAMLEAGTSKAEMARKLKVSRNTLAAFLNRNRTGIPSN | not soluble |
| MIYTLENQHLKISLSNHGGELHSIKGKKDNTEFLWSGDEAYWKYHAPILFPIVGKVFNGKYTVDGITYELPQHGLARVRDFEMIEQTKNSISFELKYSEDTLKVYPFKFSLIIKYTLNDINLSIDYIVKNLDNKEMYFSIGAHPAFMCPIENDKFDDYYFEFNKKENASIMQLVGPGYFSKEEKPYLKDEHIINLSTDLFKNDALVFKNLKSNKISLKSKNHKKYLEFDFGEFPYLGLWTKDTGAPFVCIEPWFGHADFDGFNGEFKDKAAIQSLMPNKEFHCNYNISFFELEHHHHHH | soluble |
| MKALARFGKAFGGYKMIDVPQPMCGPEDVVIEIKAAAICGADMKHYNVDSGSDEFNSIRGHEFAGCIAQVGEKVKDWKVGQRVVSDNSGHVCGVCPACEQGDFLCCTEKVNLGLDNNTWGGGFSKYCLVPGEILKIHRHALWEIPDGVDYEDAAVLDPICNAYKSIAQQSKFLPGQDVVVIGTGPLGLFSVQMARIMGAVNIVVVGLQEDVAVRFPVAKELGATAVVNGSTEDVVARCQQICGKDNLGLVIECSGANIALKQAIEMLRPNGEVVRVGMGFKPLDFSINDITAWNKSIIGHMAYDSTSWRNAIRLLASGAIKVKPMITHRIGLSQWREGFDAMVDKTAIKVIMTYDFDE | soluble |
| MKAMKSLGADLDKALGRLSGGLYIITAKKGDVSSAMLASWVNQASFKPLGFSIAVAKDRAIESLMQVGDRFVLNVLEEGNYQPLMRHFLKRFAPGADRFEGVKTQPAENGAPILGDALAYMECEVVSRMDCGDHWAVYSTVYAGRVSKSEALTAVHHRKVGNHYLEHHHHHH | soluble |
| MKAQIIHSFGDSSVFQLEEVSKPKLLPGHVLIDVKATSVNPIDTKMRSGAVSAVAPEFPAILHGDVAGIVIEVGEGVSKFKCGDEVYGCAGGFKETGGALAEFMLADARLIAHKPNNITMEEAAALPLVAITAWESLFDRANIKSGQNVLIHGATGGVGHVAIQLAKWAGANVFTTASQQNKMEIAHRLGADVAINYKEESVQESVQEYVQKHTNGNGFEVIFDTVGGKNLDNSFEAAAVNGTVVTIAARSTHDLSPLHAKGLSLHVTFMALKILHTDKRNDCGEILTKITKIVEEGKLRPLLDSKSFTFDEVAQAHEYLESNKAIGKIVLKNVW | soluble |
| MKARKRKEQTFHEYFKEWVDLYKVGAIRSITLQKYYVTEQKIQELVPDLKIKDLDRYTYQQLLNSYAVTHEKQTTMDFHHHLKGAILDAVDEGVISQNPTRKIVIKGKTPRPKKAKFLNQFEVQALLKELNLKEDINWDWFILLIIKTGLRFSEALALTPSDFDFSKQKIIINKTWDYKMVTGSFQPTKNESSNRKIQIDWQLAMQFSQLIKMKDPDKPIFVKSRVFNSTINNRLKVLCENANIPTITVHSLRHTHASLLLFAGVSIASVANRLGHSSMTTTQETYLHIIQELENQDNDKIIRHLSMLM | not soluble |
| MKATSEELAIFVSVVESGSFSRAAEQLGQANSAVSRAVKKLEMKLGVSLLNRTTRQLSLTEEGERYFRRVQSILQEMAAAESEIMETRNTPRGLLRIDAATPVVLHFLMPLIKPFRERYPEVTLSLVSSETIINLIERKVDVAIRAGTLTDSSLRARPLFNSYRKIIASPDYISRYGKPETIDDLKQHVCLGFTEPASLNTWPIACSDGQLHEVKYGLSSNSGETLKQLCLSGNGIACLSDYMIDKEIARGELVELMADKVLPVEMPFSAVYYSDRAVSTRIRAFIDFLSEHVKTAPGGVMPIS | not soluble |
